Here are results for six molecules from patent US20140087995A1 (published 2014).

Numbered stars: 1 amine (or outer) side, 2 acyl side, 3 side chain; on linkers, the order of the positions; unused ones are H or OH. Bridge positions count the residues as written; N and C are the ends. Square brackets hold non-standard residues; d marks the D form. Side chains are listed from the residue outwards. Ends that are not written are not given here. * marks the point of attachment. C20 diacid = O=C(O)CCCCCCCCCCCCCCCCCCC(=O)*; γGlu = O=C(O)[C@H](CCC(=O)[*:2])N[*:1]; AEEA = NCCOCCOCC(=O)O

To fix the notation:
T1: rat amylin receptor (rat calcitonin receptor + rat RAMP 3) (rat, UniProt P32214 25-516; Q9JJ73 23-147)
T1 construct: whole, on cells; Membranes prepared from transiently transfected BHK tk'ts 13 cells; also called rAmylin-R; rat amylin 3(a) receptor
T1 sequence (looked up) 1: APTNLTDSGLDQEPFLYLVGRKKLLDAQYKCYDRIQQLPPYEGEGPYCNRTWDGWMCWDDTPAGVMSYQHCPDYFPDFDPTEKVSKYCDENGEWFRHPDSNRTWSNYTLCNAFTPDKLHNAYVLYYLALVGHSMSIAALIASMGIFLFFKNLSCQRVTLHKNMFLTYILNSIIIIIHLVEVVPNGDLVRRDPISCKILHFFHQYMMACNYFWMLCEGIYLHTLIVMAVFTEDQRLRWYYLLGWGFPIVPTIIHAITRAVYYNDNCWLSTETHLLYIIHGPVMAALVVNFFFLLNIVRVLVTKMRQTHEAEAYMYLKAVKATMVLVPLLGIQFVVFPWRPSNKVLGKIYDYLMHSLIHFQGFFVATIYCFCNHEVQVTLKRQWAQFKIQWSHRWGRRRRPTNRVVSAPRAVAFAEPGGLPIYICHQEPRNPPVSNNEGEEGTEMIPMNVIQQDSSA
T1 sequence (looked up) 2: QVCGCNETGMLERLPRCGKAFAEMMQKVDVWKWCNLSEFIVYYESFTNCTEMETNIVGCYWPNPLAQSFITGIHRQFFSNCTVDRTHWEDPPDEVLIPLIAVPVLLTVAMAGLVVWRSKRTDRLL

T2: rat calcitonin receptor (rat, UniProt P32214 25-516)
T2 construct: whole, on cells; Membranes prepared from transiently transfected BHK tk'ts 13 cells; also called rCTR; rat calcitonin (a) receptor
T2 sequence (looked up): T1 sequence (looked up) 1

T3: rat calcitonin receptor (rat, UniProt P32214 25-516)
T3 construct: whole, on cells; Cell membranes of transiently transfected BHK tk'ts 13 cells (Assay VIII); also called rCTR; rCT
T3 sequence (looked up): T1 sequence (looked up) 1

T4: rat amylin receptor (rat calcitonin receptor + rat RAMP 3) (rat, UniProt P32214 25-516; Q9JJ73 23-147)
T4 construct: whole, on cells; Cell membranes of transiently transfected BHK tk'ts 13 cells (Assay VI); also called rAmylin-R; rat amylin 3(a) receptor
T4 sequence (looked up) 1: T1 sequence (looked up) 1
T4 sequence (looked up) 2: T1 sequence (looked up) 2

B1: N^ε1-[(4S)-4-carboxy-4-[[(4S)-4-carboxy-4-(19-carboxynonadecanoylamino)butanoyl]amino]butanoyl]-[D-Asp14,Arg17,Pro21,Pro27,Arg35]-h-amylin (peptide)
peptide: K([γGlu-γGlu-C20 diacid])CNTATCATQRLA[dD]FLRHSSPNFGAIPSSTNVGSRTY-NH2
modifications: disulfide 2-7; N-terminus assumed
SMILES: CC[C@H](C)[C@H](NC(=O)[C@H](C)NC(=O)CNC(=O)[C@H](Cc1ccccc1)NC(=O)[C@H](CC(N)=O)NC(=O)[C@@H]1CCCN1C(=O)[C@H](CO)NC(=O)[C@H](CO)NC(=O)[C@H](Cc1c[nH]cn1)NC(=O)[C@H](CCCNC(=N)N)NC(=O)[C@H](CC(C)C)NC(=O)[C@H](Cc1ccccc1)NC(=O)[C@@H](CC(=O)O)NC(=O)[C@H](C)NC(=O)[C@H](CC(C)C)NC(=O)[C@H](CCCNC(=N)N)NC(=O)[C@H](CCC(N)=O)NC(=O)[C@@H](NC(=O)[C@H](C)NC(=O)[C@@H]1CSSC[C@H](NC(=O)[C@@H](N)CCCCNC(=O)CC[C@H](NC(=O)CC[C@H](NC(=O)CCCCCCCCCCCCCCCCCCC(=O)O)C(=O)O)C(=O)O)C(=O)N[C@@H](CC(N)=O)C(=O)N[C@@H]([C@@H](C)O)C(=O)N[C@@H](C)C(=O)N[C@@H]([C@@H](C)O)C(=O)N1)[C@@H](C)O)C(=O)N1CCC[C@H]1C(=O)N[C@@H](CO)C(=O)N[C@@H](CO)C(=O)N[C@H](C(=O)N[C@@H](CC(N)=O)C(=O)N[C@H](C(=O)NCC(=O)N[C@@H](CO)C(=O)N[C@@H](CCCNC(=N)N)C(=O)N[C@H](C(=O)N[C@@H](Cc1ccc(O)cc1)C(N)=O)[C@@H](C)O)C(C)C)[C@@H](C)O
B2: N^ε1-[2-[2-[2-[[(4S)-4-carboxy-4-(19-carboxynonadecanoylamino)butanoyl]amino]ethoxy]ethoxy]acetyl]-[Arg17,Pro21,Pro27,Pro28,Pro31]-h-amylin (peptide)
peptide: K([AEEA-γGlu-C20 diacid])CNTATCATQRLANFLRHSSPNFGAIPPSTPVGSNTY-NH2
modifications: disulfide 2-7
notes: Acylated analogue of human amylin; also called compound 53
B3: N^ε1-[2-[2-[2-[[(4S)-4-carboxy-4-(19-carboxynonadecanoylamino)butanoyl]amino]ethoxy]ethoxy]acetyl]-[Arg17,Pro21,Pro27,Pro28,Pro34]-h-amylin (peptide)
peptide: K([AEEA-γGlu-C20 diacid])CNTATCATQRLANFLRHSSPNFGAIPPSTNVGPNTY-NH2
modifications: disulfide 2-7; N-terminus assumed
SMILES: CC[C@H](C)[C@H](NC(=O)[C@H](C)NC(=O)CNC(=O)[C@H](Cc1ccccc1)NC(=O)[C@H](CC(N)=O)NC(=O)[C@@H]1CCCN1C(=O)[C@H](CO)NC(=O)[C@H](CO)NC(=O)[C@H](Cc1c[nH]cn1)NC(=O)[C@H](CCCNC(=N)N)NC(=O)[C@H](CC(C)C)NC(=O)[C@H](Cc1ccccc1)NC(=O)[C@H](CC(N)=O)NC(=O)[C@H](C)NC(=O)[C@H](CC(C)C)NC(=O)[C@H](CCCNC(=N)N)NC(=O)[C@H](CCC(N)=O)NC(=O)[C@@H](NC(=O)[C@H](C)NC(=O)[C@@H]1CSSC[C@H](NC(=O)[C@@H](N)CCCCNC(=O)COCCOCCNC(=O)CC[C@H](NC(=O)CCCCCCCCCCCCCCCCCCC(=O)O)C(=O)O)C(=O)N[C@@H](CC(N)=O)C(=O)N[C@@H]([C@@H](C)O)C(=O)N[C@@H](C)C(=O)N[C@@H]([C@@H](C)O)C(=O)N1)[C@@H](C)O)C(=O)N1CCC[C@H]1C(=O)N1CCC[C@H]1C(=O)N[C@@H](CO)C(=O)N[C@H](C(=O)N[C@@H](CC(N)=O)C(=O)N[C@H](C(=O)NCC(=O)N1CCC[C@H]1C(=O)N[C@@H](CC(N)=O)C(=O)N[C@H](C(=O)N[C@@H](Cc1ccc(O)cc1)C(N)=O)[C@@H](C)O)C(C)C)[C@@H](C)O
notes: Acylated analogue of human amylin; also called compound 55
B4: N^ε1-[2-[2-[2-[[(4S)-4-carboxy-4-(19-carboxynonadecanoylamino)butanoyl]amino]ethoxy]ethoxy]acetyl]-[Arg17,Pro21,Pro27,Pro29,Pro34]-h-amylin (peptide)
peptide: K([AEEA-γGlu-C20 diacid])CNTATCATQRLANFLRHSSPNFGAIPSPTNVGPNTY-NH2
modifications: disulfide 2-7; N-terminus assumed
SMILES: CC[C@H](C)[C@H](NC(=O)[C@H](C)NC(=O)CNC(=O)[C@H](Cc1ccccc1)NC(=O)[C@H](CC(N)=O)NC(=O)[C@@H]1CCCN1C(=O)[C@H](CO)NC(=O)[C@H](CO)NC(=O)[C@H](Cc1c[nH]cn1)NC(=O)[C@H](CCCNC(=N)N)NC(=O)[C@H](CC(C)C)NC(=O)[C@H](Cc1ccccc1)NC(=O)[C@H](CC(N)=O)NC(=O)[C@H](C)NC(=O)[C@H](CC(C)C)NC(=O)[C@H](CCCNC(=N)N)NC(=O)[C@H](CCC(N)=O)NC(=O)[C@@H](NC(=O)[C@H](C)NC(=O)[C@@H]1CSSC[C@H](NC(=O)[C@@H](N)CCCCNC(=O)COCCOCCNC(=O)CC[C@H](NC(=O)CCCCCCCCCCCCCCCCCCC(=O)O)C(=O)O)C(=O)N[C@@H](CC(N)=O)C(=O)N[C@@H]([C@@H](C)O)C(=O)N[C@@H](C)C(=O)N[C@@H]([C@@H](C)O)C(=O)N1)[C@@H](C)O)C(=O)N1CCC[C@H]1C(=O)N[C@@H](CO)C(=O)N1CCC[C@H]1C(=O)N[C@H](C(=O)N[C@@H](CC(N)=O)C(=O)N[C@H](C(=O)NCC(=O)N1CCC[C@H]1C(=O)N[C@@H](CC(N)=O)C(=O)N[C@H](C(=O)N[C@@H](Cc1ccc(O)cc1)C(N)=O)[C@@H](C)O)C(C)C)[C@@H](C)O
notes: Acylated analogue of human amylin; also called compound 56
B5: N^ε1-[2-[2-[2-[[(4S)-4-carboxy-4-(19-carboxynonadecanoylamino)butanoyl]amino]ethoxy]ethoxy]acetyl]-[Arg17,Pro21,Pro27,Pro29,Pro31]-h-amylin (peptide)
peptide: K([AEEA-γGlu-C20 diacid])CNTATCATQRLANFLRHSSPNFGAIPSPTPVGSNTY-NH2
modifications: disulfide 2-7; N-terminus assumed
SMILES: CC[C@H](C)[C@H](NC(=O)[C@H](C)NC(=O)CNC(=O)[C@H](Cc1ccccc1)NC(=O)[C@H](CC(N)=O)NC(=O)[C@@H]1CCCN1C(=O)[C@H](CO)NC(=O)[C@H](CO)NC(=O)[C@H](Cc1c[nH]cn1)NC(=O)[C@H](CCCNC(=N)N)NC(=O)[C@H](CC(C)C)NC(=O)[C@H](Cc1ccccc1)NC(=O)[C@H](CC(N)=O)NC(=O)[C@H](C)NC(=O)[C@H](CC(C)C)NC(=O)[C@H](CCCNC(=N)N)NC(=O)[C@H](CCC(N)=O)NC(=O)[C@@H](NC(=O)[C@H](C)NC(=O)[C@@H]1CSSC[C@H](NC(=O)[C@@H](N)CCCCNC(=O)COCCOCCNC(=O)CC[C@H](NC(=O)CCCCCCCCCCCCCCCCCCC(=O)O)C(=O)O)C(=O)N[C@@H](CC(N)=O)C(=O)N[C@@H]([C@@H](C)O)C(=O)N[C@@H](C)C(=O)N[C@@H]([C@@H](C)O)C(=O)N1)[C@@H](C)O)C(=O)N1CCC[C@H]1C(=O)N[C@@H](CO)C(=O)N1CCC[C@H]1C(=O)N[C@H](C(=O)N1CCC[C@H]1C(=O)N[C@H](C(=O)NCC(=O)N[C@@H](CO)C(=O)N[C@@H](CC(N)=O)C(=O)N[C@H](C(=O)N[C@@H](Cc1ccc(O)cc1)C(N)=O)[C@@H](C)O)C(C)C)[C@@H](C)O
notes: Acylated analogue of human amylin; also called compound 54

The target of one assay is T1, rat amylin receptor (rat calcitonin …). In words: SPA competition vs 125I-rat amylin, membranes (Assay VI).
As to B1, the IC50 was found to be 1.69 nM.

The target of another assay is T2, rat calcitonin receptor. Description: SPA competition vs 125I-calcitonin, membranes (Assay VIII).
Turning to B1, the IC50 was found to be 536 nM.
On the same count and under the same terms, in the case of KCNTATCATQRLADFLRHSSPNFGAIPSSTNVGSRTY-NH2 (disulfide 2-7, Not acylated) [[Asp14,Arg17,Pro21,Pro27,Arg35]-h-amylin] it was 30.9 nM.

The target in another assay is T3, rat calcitonin receptor. In words: ratio IC50 rat calcitonin receptor / IC50 rat amylin receptor.
B2: the “Ratio rCT/rAmylin binding” value turned out to be 130.
The same measure, in the same setting: next, B3: 77.2; B4: 131; B5: 179.

The target in the next assay is T3, rat calcitonin receptor. In words: SPA competition vs 125I-calcitonin, membranes with rat CTR (Assay VIII).
On to B2, for which the IC50 is 10.9 nM.
For B3, the IC50 stood at 6.25 nM.
On the same count and under the same terms, in the case of B4 it was 5.26 nM; in that of B5, 8.79 nM.

The target in the next assay is T4, rat amylin receptor (rat calcitonin …). Description: SPA competition vs 125I-rat amylin, membranes with rat CTR + rat RAMP3 (Assay VI).
On to B2, for which the IC50 was found to be 0.084 nM.
On the same count and under the same terms, next, B3: 0.081 nM; B4: 0.04 nM; B5: 0.049 nM.
